Experiment [1] addresses human CD28 (SPR of Example 4) (human, UniProt P10747 19-152, limits assumed). Kind of experiment: SPR; KD rounded to an integer; first value of the pair, taken for CD3mid. In general terms: In SPR one partner is held on a chip, and binding of the other changes the refractive index at the surface.
Experiment [2] addresses T1, recombinant human CD38 (SPR of Example 4) (human, UniProt P28907 45-300, limits assumed). The experiment is described as above.
Experiment [3] addresses T2, human CD38 expressed on the cell surface (human, UniProt P28907 1-300).
T2 construct: whole, on cells; also called hCD38-expressing cells; huCD38
Kind of experiment: flow cytometry on PréB hCD38 cells. As for the experimental part:
(§1) The recombinant cell line was described by J. Deckket et al. 2014 Clin. Cancer Res 20:4574-4583. […] Antibody binding was evaluated after centrifugation and resuspension of cells by adding 200 μl/well PBS 1% BSA and read using Guava® easyCyte™ 8HT Flow Cytometry System. Apparent KD and EC50 values were estimated using BIOST®T-BINDING and BIOST®T-SPEED software, respectively.
For orientation: In flow cytometry, cells or beads pass a laser one at a time.

Experiment [4] has as its target T2, human CD38 expressed on the cell surface. Description: flow cytometry, 'Apparent KD value against rec. cells by FACS (nM)'; single value of the mid/low row, equal to the EC50 of the CD3mid protein in FIG. 6C. As for the experimental part:
as §1

Experiment [5] shares this target. Description: flow cytometry on preB::300.19 cells.
For experiment [6], the target named is T3, cynomolgus monkey CD38 expressed on the cell surface (cynomolgus monkey, UniProt Q5VAN0 1-301).
T3 construct: whole, on cells; also called cCD38-expressing cells
Kind of experiment: flow cytometry on preB::300.19 cells.

In experiment [7] the target is T3, cynomolgus monkey CD38 expressed on the …. Kind of experiment: flow cytometry on PréB cCD38 cells. As for the experimental part: as §1
Experiment [8] has as its target T1, recombinant human CD38 (SPR of Example …). Description: SPR (column 'KD value against rec. protein by SPR (nM)'); first value of the pair, taken for CD3mid.
Experiment [9] has the same target. Description: SPR.
The target in experiment [10] is T3, cynomolgus monkey CD38 expressed on the …. Description: flow cytometry on 300.19 cynoCD38 cells (PréB cCD38). As for the experimental part:
as §1

The target in experiment [11] is T4, hCD38-his (SEQ ID NO: 2) (human, UniProt P28907 45-300).
T4 construct: His-tagged soluble protein derived from isoform A; also called human CD38-histag; hCD38::Histag
Kind of experiment: SPR, mAb captured via anti-human Fc, soluble CD38-his injected. As for the experimental part: (§2) The binding properties of the anti-huCD38 mabs were evaluated using a BIAcore 2000 (BIAcore Inc., Uppsala, Ni). […] The surface was regenerated between injections using 30 μL of 50 mM NaOH-1 M NaCl. Individual sensorgrams wore analyzed using BIAsimulation software.

The target in experiment [12] is T5, cCD38-his (SEQ ID NO: 4) (cynomolgus monkey, UniProt Q5VAN0 46-301).
T5 construct: His-tagged soluble protein; also called cyno CD38-histag; cynoCD38::Histag
The experiment is described as above. As for the experimental part: as §2

For experiment [13], the target named is T5, cCD38-his (SEQ ID NO: 4). Kind of experiment: ELISA on cynoCD38::Histag [Cont.]. On the technique in general: ELISA stands for enzyme-linked immunosorbent assay.
Experiment [14] has as its target T4, hCD38-his (SEQ ID NO: 2). Description: ELISA on hCD38::Histag.
The target in experiment [15] is T6, CD38 isoform E (SEQ ID NO:105) (human, UniProt P28907 45-195, limits assumed).
T6 construct: also called huCD38 isoform E
Kind of experiment: ELISA, plate coated with the CD38 isoform. As for the experimental part:
(§3) 96-well plates were coated with either isoform at 0.5 μg/well in PBS and 100 μL/well of antibodies were added to the plate. The plate was incubated at 37° C. for 1 h and washed five times with PBS containing 0.05% Tween-20 (PBS-T). […] Following incubation at 37° C. for 1 h in darkness, plates were washed with PBS-T five times. Antibody binding w as visualized by adding TMB-H2O2 buffer and read at a wavelength of 450 nm. EC50 values were estimated using BIOST@T-SPEED software.

The target in experiment [16] is T7, CD38 isoform A (SEQ ID NO:1) (human, UniProt P28907 45-300).
T7 construct: also called huCD38 isoform A
Kind of experiment: ELISA, plate coated with the CD38 isoform. As for the experimental part: as §3

The target of experiment [17] is T3, cynomolgus monkey CD38 expressed on the …. Description: flow cytometry (FACS) on 300.19 PreB cynoCD38 cells [Cont.]. As for the experimental part:
(§4) The recombinant cell line was described by J. Deckket et al. 2014 Clin Cancer Res 20:4574-4583. […] Antibody binding was evaluated after centrifugation and resuspension of cells by adding 200 μL/well PBS 1% BSA and read using Guava® easvCyte™ 8HT Flow Cytometry System. Apparent KD and EC50 values were estimated using BIOST@T-BINDING and BIOST@T-SPEED software, respectively.

The target in experiment [18] is T4, hCD38-his (SEQ ID NO: 2). Description: ELISA (column ELISA EC50 nM, hu).
The target in experiment [19] is T2, human CD38 expressed on the cell surface. Description: flow cytometry on preB::300.19 cells, apparent KD. As for the experimental part: as §4
Experiment [20] has as its target T3, cynomolgus monkey CD38 expressed on the …. Description: flow cytometry on preB::300.19 cells, apparent KD. As for the experimental part: as §4
For experiment [21] the target is unchanged. Kind of experiment: flow cytometry (column FACS EC50 nM, cyno). As for the experimental part:
as §4

The target in experiment [22] is T2, human CD38 expressed on the cell surface. Description: flow cytometry (column FACS EC50 nM, hu). As for the experimental part: as §4
In experiment [23] the target is T5, cCD38-his (SEQ ID NO: 4). Kind of experiment: ELISA (column ELISA EC50 nM, cyno).
Experiment [24] concerns the target T2, human CD38 expressed on the cell surface. Kind of experiment: flow cytometry (FACS) on 300.19 PreB hCD38 cells. As for the experimental part:
as §4

The target is the same in experiment [25]. Kind of experiment: flow cytometry on preB::300.19 cells, apparent KD. As for the experimental part:
as §1
The source holds these as a separate data set.

Experiment [26] deals with T3, cynomolgus monkey CD38 expressed on the …. Description: flow cytometry on preB::300.19 cells, apparent KD. As for the experimental part:
as §1
The source holds these as a separate data set.

Consider three molecules from US20220041746A1 (Sanofi, published 2022).

Values joined by “and” are separate entries in the source; they are usually repeats but may differ in a detail not shown here. Equal entries are not always repeated. Where two headings read alike, the source gives them in different places.

For orientation: EC50 means the concentration giving half of the maximal effect. The term koff denotes the first-order rate constant of dissociation.

B1: CD38VH1×CD28cvn×CD3mid IgG4 (other)
VH 1: QVQLVQSGAEVVKPGASVKVSCKASGYTFTSYAMHWVKEAPGQRLEWIGYIYPGQGGTNYNQKFQGRATLTADTSASTAYMELSSLRSEDTAVYFCARTGGLRRAYFTYWGQGTLVTVSS
VL 1: DIVLTQSPATLSLSPGERATISCRASQSVSSYGQGFMHWYQQKPGQPPRLLIYGASSRATGIPARFSGSGSGTDFTLTISPLEPEDFAVYYCQQNKEDPWTFGGGTKLEIK
VH 2: QVQLQESGPGLVKPSQTLSLTCTVSGFSLSDYGVHWVRQPPGKGLEWLGVIWAGGGTNYNPSLKSRKTISKDTSKNQVSLKLSSVTAADTAVYYCARDKGYSYYYSMDYWGQGTTVTVSS
VL 2: DIVLTQSPASLAVSPGQRATITCRASESVEYYVTSLMQWYQQKPGQPPKLLIFAASNVESGVPARFSGSGSGTDFTLTINPVEANDVANYYCQQSRKVPYTFGQGTKLEIK
VH 3: QVQLVESGGGVVQPGRSLRLSCAASGFTFTKAWMHWVRQAPGKQLEWVAQIKDKSNSYATYYADSVKGRFTISRDDSKNTLYLQMNSLRAEDTAVYYCRGVYYALSPFDYWGQGTLVTVSS
VL 3: DIVMTQTPLSLSVTPGQPASISCKSSQSLVHNNANTYLSWYLQKPGQSPQSLIYKVSNRFSGVPDRFSGSGSGTDFTLKISRVEAEDVGVYYCGQGTQYPFTFGSGTKVEIK
notes: also called CD38VH1×CD28evn×CD3mid; CD38VH1 × CD28cyn × CD3mid IgG4
Regarding B1, the Kd in experiment [1] was 18 nM; in experiment [2], 4 nM; in experiment [4], 4.4 nM; in experiment [8] it was 4 nM. Besides, the EC50 is 4.4 nM and 0.663 µg/mL in experiment [3]; 7.5 nM and 1.12 µg/mL in experiment [7]. Moreover, the results for the “fold lower apparent affinity than the parental mAb2 antibody” value in [5] and in experiment [6] were 9 fold and 7.5 fold, respectively.

B2: CD38HHY1370×CD28sup×CD3mid (other)
VH 1: QVQLVESGGGVVQPGRSLRLSCAASGFTFSSYGMHWVRQAPGKGLEWVAVIWYDGSNKYYADSVKGRFTISGDNSKNTLYLQMNSLRAEDTAVYYCARMFRGAFDYWGQGTLVTVSS
VL 1: AIQMTQSPSSLSASVGDRVTITCRASQGIRNDLGWYQQKPGKAPKLLIYAASSLQSGVPSRFSGSGSGTDFTLTISGLQPEDSATYYCLQDYIYYPTFGQGTKVEIK
VH 2: QVQLVQSGAEVVKPGASVKVSCKASGYTFTSYYIHWVRQAPGQGLEWIGSIYPGNVNTNYAQKFQGRATLTVDTSISTAYMELSRLRSDDTAVYYCTRSHYGLDWNFDVWGKGTTVTVSS
VL 2: DIQMTQSPSSLSASVGDRVTITCQASQNIYVWLNWYQQKPGKAPKLLIYKASNLHTGVPSRFSGSGSGTDFTLTISSLQPEDIATYYCQQGQTYPYTFGQGTKLEIK
VH 3: QVQLVESGGGVVQPGRSLRLSCAASGFTFTKAWMHWVRQAPGKQLEWVAQIKDKSNSYATYYADSVKGRFTISRDDSKNTLYLQMNSLRAEDTAVYYCRGVYYALSPFDYWGQGTLVTVSS
VL 3: DIVMTQTPLSLSVTPGQPASISCKSSQSLVHNNANTYLSWYLQKPGQSPQSLIYKVSNRFSGVPDRFSGSGSGTDFTLKISRVEAEDVGVYYCGQGTQYPFTFGSGTKVEIK
Turning to B2, the Kd in experiment [9] was 1 nM. For the same molecule, the binding result in experiment [10] is “binds”.

B3: mAb2 (antibody, human IgG1, kappa, V domains shown)
VH: QVQLVQSGAEVVKPGASVKVSCKASGYTFTSYAMHWVKEAPGQRLEWIGYIYPGQGGTNYNQKFQGRATLTADTSASTAYMELSSLRSEDTAVYFCARTGGLRRAYFTYWGQGTLVTVSS
VL: DIVLTQSPATLSLSPGERATISCRASQSVSSYGQGFMHWYQQKPGQPPRLLIYGASSRATGIPARFSGSGSGTDFTLTISPLEPEDFAVYYCQQNKEDPWTFGGGTKLEIKR
notes: also called antiCD38_C2-CD38-1_VH1-VL1; CD38VH1
On to B3, for which the Kd with hCD38-his (SEQ ID NO: 2) [11] worked out at 0.332 nM; with cCD38-his (SEQ ID NO: 4) [12] it was 3.44 nM; in experiment [19], 0.33 nM; in experiment [20], 0.75 nM; in experiment [25], 0.5 nM; in [26], 1 nM. In addition, the koff amounted to 0.00039 s⁻¹ with hCD38-his (SEQ ID NO: 2) [11] and 0.000784 s⁻¹ with cCD38-his (SEQ ID NO: 4) [12]. The EC50 in the experiment with cCD38-his (SEQ ID NO: 4) [13] is 0.1 nM; with hCD38-his (SEQ ID NO: 2) [14] it was 0.11 nM; in experiment [15], 0.1 nM; in [16] it was 0.14 nM; in [17] it was 0.76 nM and 0.114 µg/mL; in the experiment with hCD38-his (SEQ ID NO: 2) [18] it was 0.11 nM. Moreover, the EC50 is 0.5 nM and 0.0694 µg/mL in experiment [3]; 0.76 nM in experiment [21]; 0.33 nM in [22]; 0.1 nM with cCD38-his (SEQ ID NO: 4) [23]; 0.33 nM in experiment [24]; 1 nM and 0.147 µg/mL in experiment [7].
